Experimental findings from article PMC5297931 are described below.

This assay has as its target Haemophilus surface fibril (Hsf) putative domain 1 (PD1) (H. influenzae). Put plainly: SEC-MALLS; Superdex 200 5/150, buffer C (50 mM Tris, 150 mM NaCl pH 8.0), 0.2 ml/min; LS, dRI and UV detectors; IMAC- and SEC-purified HsfPD1.

Broadly, the stoichiometry N is a count of units in the complex or per binding partner. The substance “Haemophilus surface fibril (Hsf) putative domain 1 (PD1) (domain or fragment)” returned a stoichiometry N of 3.
